Results on three molecules are retold here after patent US20180306789A1 (published 2018).

For test [1], the target named is T1, GRB14-002 (peptide code; source protein not spelled out) peptide on HLA-A*02:01 (human).
T1 peptide: GLVDGVFLV
Briefly: cytokine release.

For test [2], the target named is T2, SNR-004 (peptide code; source protein not spelled out) peptide on HLA-A*02:01 (human).
T2 peptide: ILQDGRIFI
Briefly: cytokine release.

For test [3], the target named is T3, WRN-002 (peptide code; source protein not spelled out) peptide on HLA-A*02:01 (human).
T3 peptide: ILQDLQPFL
Briefly: cytokine release.

The target in test [4] is T4, MUC-009 (peptide code; source protein not spelled out) peptide on HLA-A*02:01 (human).
T4 peptide: ILQEGTFKA
The experiment in a line: cytokine release.

Test [5] deals with T5, GSTA4-001 (peptide code; source protein not spelled out) peptide on HLA-A*02:01 (human).
T5 peptide: KLQDGNHLL
Briefly: cytokine release.

Test [6] addresses T6, PFN1-001 (peptide code; source protein not spelled out) peptide on HLA-A*02:01 (human).
T6 peptide: LLQDGEFSM
Briefly: cytokine release.

Test [7] addresses T7, VPS39-001 (peptide code; source protein not spelled out) peptide on HLA-A*02:01 (human).
T7 peptide: LLQDKQFEL
Briefly: cytokine release.

In test [8] the target is T8, AHR-002 (peptide code; source protein not spelled out) peptide on HLA-A*02:01 (human).
T8 peptide: NLQEGEFLL
The experiment in a line: cytokine release.

The target of test [9] is T9, KCM-001 (peptide code; source protein not spelled out) peptide on HLA-A*02:01 (human).
T9 peptide: TLQNSQFLL
Briefly: cytokine release.

The target in test [10] is T10, VPS51-001 (peptide code; source protein not spelled out) peptide on HLA-A*02:01 (human).
T10 peptide: TLTDEQFLV
The experiment in a line: cytokine release.

Test [11] deals with T11, DDB1 and CUL4 associated factor 4-like 2 (DCAF4L2); peptide DCAF4L2-001 peptide on HLA-A*02:01 (human).
T11 peptide: ILQDGQFLV
The experiment in a line: multimer staining.

B1: R52P2G11 (TCR, V domains shown)
Valpha: KNQVEQSPQSLIILEGKNCTLQCNYTVSPFSNLRWYKQDTGRGPVSLTIMTFSENTKSNGRYTATLDADTKQSSLHITASQLSDSASYICVVSAYGKLQFGAGTQVVVTP
Vbeta: DAGVIQSPRHEVTEMGQEVTLRCKPISGHNSLFWYRQTMMRGLELLIYFNNNVPIDDSGMPEDRFSAKMPNASFSTLKIQPSEPRDSAVYFCASSLGSPDGNQPQHFGDGTRLSIL
Consider B1, for which the binding result in [1], in test [2], in test [3], in test [4], in test [5] and in test [6] was “no recognition” in each case. Besides, the binding result in test [7] is reported as “no recognition”; in test [8], “no recognition”; in [9] it was “no recognition”; in test [10], “no recognition”; in test [11], “recognises”.

B2: R53P2A9 (TCR, V domains shown)
Valpha: AQTVTQSQPEMSVQEAETVTLSCTYDTSESDYYLFWYKQPPSRQMILVIRQEAYKQQNATENRFSVNFQKAAKSFSLKISDSQLGDAAMYFCAYNSYAGGTSYGKLTFGQGTILTVHP
Vbeta: DAGVTQSPTHLIKTRGQQVTLRCSPISGHKSVSWYQQVLGQGPQFIFQYYEKEERGRGNFPDRFSARQFPNYSSELNVNALLLGDSALYLCASSLDGTSEQYFGPGTRLTVT
Take B2: the binding result in test [1], in test [2], in test [3], in test [4], in test [5] and in [6] was “no recognition” each time. In addition, the binding result in test [7] is on record as “no recognition”; in [8], “no recognition”; in test [9] it was “no recognition”; in test [10], “no recognition”; in test [11], “recognises”.

B3: R36P3F9 (TCR, V domains shown)
Valpha: SQQGEEDPQALSIQEGENATMNCSYKTSINNLQWYRQNSGRGLVHLILIRSNEREKHSGRLRVTLDTSKKSSSLLITASRAADTASYFCATVSNYQLIWGAGTKLIIKP
Vbeta: EAQVTQNPRYLITVTGKKLTVTCSQNMNHEYMSWYRQDPGLGLRQIYYSMNVEVTDKGDVPEGYKVSRKEKRNFPLILESPSPNQTSLYFCASSSTSGGLSGETQYFGPGTRLLVL
With B3, the binding result in test [1], in test [2], in [3], in [4], in [5] and in test [6] was “no recognition” throughout. Further, the binding result in [7] is on record as “no recognition”; in test [8], “no recognition”; in test [9] it was “no recognition”; in test [10], “no recognition”; in test [11] it was “recognises”.
